Source: publication doi:10.1101/682807
Where “and” joins values, the source holds several entries; their conditions need not be identical. Equal values may be shown once.

Legend:
[1] = target: HR4^Fei-0 (overexpressed in N. benthamiana) (A. thaliana); experiment: SDS-resistant dimers on SDS-PAGE immunoblot
[2] = target: RPP7b-3×FLAG (A. thaliana); experiment: native gel or EMSA

| stoichiometry N [1] | stoichiometry N [2] | Substance |
| --- | --- | --- |
| 2 | – | HR4^Fei-0 (overexpressed in N. benthamiana) (natural protein) |
| – | 7 and 6 | RPP7b-3×FLAG (natural protein) |
